Source: US20140005119A1, “COMPOSITIONS AND METHODS FOR INHIBITING THE ACTIVITY OF P110a MUTANT PROTEINS” (Case Western Reserve University, priority 2012, published 2014)
Where no end group is shown, it is not given here.

Columns and labels:
[1] = biological target: T1, interaction between p110α E545K and IRS1 (Homo sapiens, UniProt P35568); assay: Peptide competition assay in cell lysates (anti-FLAG immunoprecipitation, anti-IRS1 blot); format: binding; conditions: peptide added into cell lysates of p110α E545K 3×FLAG KI cells
T1 construct: In KI DLD1 cells, IRS1 was co-immunoprecipitated with p110α E545K but not the WT p110α; endogenous in cells; host or cells: DLD1 p110α E545K 3×FLAG knock-in cells (rAAV gene targeting of the endogenous allele)
T1 sequence (P35568 1-1242): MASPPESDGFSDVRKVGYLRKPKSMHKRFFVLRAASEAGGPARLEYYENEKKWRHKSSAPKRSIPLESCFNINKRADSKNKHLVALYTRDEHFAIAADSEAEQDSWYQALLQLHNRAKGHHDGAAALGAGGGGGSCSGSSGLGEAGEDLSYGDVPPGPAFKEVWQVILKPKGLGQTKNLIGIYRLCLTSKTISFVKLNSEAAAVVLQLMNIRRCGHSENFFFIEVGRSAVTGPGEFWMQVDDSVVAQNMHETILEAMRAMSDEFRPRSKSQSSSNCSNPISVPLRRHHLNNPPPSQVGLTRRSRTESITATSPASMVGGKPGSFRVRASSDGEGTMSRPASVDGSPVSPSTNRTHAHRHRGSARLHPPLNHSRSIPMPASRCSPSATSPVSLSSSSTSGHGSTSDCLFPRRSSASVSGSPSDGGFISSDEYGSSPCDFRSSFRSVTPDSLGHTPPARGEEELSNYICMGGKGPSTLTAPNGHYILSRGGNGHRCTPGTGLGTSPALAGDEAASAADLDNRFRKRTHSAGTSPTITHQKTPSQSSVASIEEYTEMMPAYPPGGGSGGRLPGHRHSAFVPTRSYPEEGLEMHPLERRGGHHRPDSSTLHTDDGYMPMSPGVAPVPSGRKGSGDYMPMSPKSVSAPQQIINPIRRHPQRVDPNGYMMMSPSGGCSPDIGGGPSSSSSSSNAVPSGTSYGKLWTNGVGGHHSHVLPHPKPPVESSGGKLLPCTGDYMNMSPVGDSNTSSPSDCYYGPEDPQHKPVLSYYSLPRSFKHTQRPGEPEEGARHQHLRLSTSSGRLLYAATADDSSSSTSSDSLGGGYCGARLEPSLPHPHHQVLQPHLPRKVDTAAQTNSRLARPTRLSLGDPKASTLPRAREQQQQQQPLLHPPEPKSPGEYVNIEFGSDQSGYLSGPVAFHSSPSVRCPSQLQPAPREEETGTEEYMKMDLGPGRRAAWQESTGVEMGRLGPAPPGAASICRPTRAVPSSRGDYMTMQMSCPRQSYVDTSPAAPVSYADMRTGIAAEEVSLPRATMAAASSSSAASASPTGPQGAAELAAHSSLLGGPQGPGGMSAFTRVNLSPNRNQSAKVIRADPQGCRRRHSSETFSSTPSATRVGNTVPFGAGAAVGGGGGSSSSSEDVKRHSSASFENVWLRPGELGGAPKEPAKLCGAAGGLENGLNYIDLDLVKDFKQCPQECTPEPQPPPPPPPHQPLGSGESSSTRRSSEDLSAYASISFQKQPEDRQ
Experimental: FIGS. 3(A-M) illustrate: (A, B) Mapping peptides (P3, SEQ ID NO: 1; P4 SEQ ID NO: 2; P5, SEQ ID NO: 3; P6, SEQ ID NO: 4) derived from mutant p110α that inhibit interaction between IRS1 and p110α E545K. The indicated peptides were added into cell lysates made from the p110α E545K 3×FLAG KI cells. Cell lysates were immunoprecipitated with beads conjugated with anti-FLAG antibodies and then blotted with anti-IRS1 antibodies. (C) Immunoblots of cell lysates made from the p110α E545K 3×FLAG KI cells. Cell lysates were immunoprecipitated with beads conjugated with anti-FLAG antibodies and then blotted with the indicated antibodies. (D) Immunoblots of cell lysate of Myc-tagged IRS1 plasmid, which co-transfected an ABD domain deletion construct of the FLAG-tagged p110α E545K mutant (ΔABD), incubated with the indicated amount of stapled p110α mutant peptides, and then immunoprecipitated with anti-FLAG antibodies and blotted with the indicated antibodies. (J, K) Immunoblot and graph of purified recombinant p110α E545K mutant proteins mixed with the indicated components and quantified using an in vitro lipid kinase assay. (L, M) Immunoblots of the indicated cell lines serum-starved, stimulated with 1 μg/ml insulin for 30 min, and then treated with or without the indicated peptides. Cell lysates were blotted with the indicated antibodies. All error bars show mean±SEM. *p<0.05, **p<0.001, t test.
(§1) For Co-immunoprecipitation (Co-IP), cells were harvested, washed with PBS, and then lysed in IP buffer (50 mMTris [pH 7.4], 150 mMNaCl, 5 mMEDTA [pH 8.0], 0.5% NP40, 1 mM PMSF, complete Protease Inhibitor Cocktail tablet [Roche]; supplemented with phosphatase inhibitors [1 mM Na3VO4, 20 mM NaF, 0.1 mM b-glycerophosphate, 20 mM sodium pyrophosphate] when necessary). For immunoblotting (IB) of phospho-specific proteins, unless stated otherwise, cells were lysed in urea buffer (100 mM NaH2PO4, 10 mM Tris-HCl, 8 M Urea, 1 mM Na3VO4, 20 mM NaF, 0.1 mM β-glycerophosphate, 20 mM sodium pyrophosphate, supplemented with complete Protease Inhibitor Cocktail tablet [Roche], pH 8.0). Lysates were then cleared by centrifugation (14,000 rpm, 10 min) and protein concentration in supernatants was determined with a BCA protein assay kit (Pierce, Rockford, Ill.). Equal amounts of total protein were used for IP or IB.
For in vitro peptide competition assay, the p110α mutant-FLAG-tagged cells were grown to 90% confluency, serum-starved overnight, and lysed as described previously. Peptides were then added to the cell lysates, incubated for 30 min at 4° C. and followed by immunoprecipitation assay.

[2] = biological target: T2, IRS1-p110α E545K interaction in DLD1 cells (Homo sapiens, UniProt P35568); assay: Co-IP after peptide added to culture medium of p110α E545K 3×FLAG KI DLD1 cells; format: cell-based; design: dose or concentration left out as unconfirmed; conditions: peptide added to cell culture medium for 16 hr
T2 construct: endogenous in cells; host or cells: DLD1 p110α E545K 3×FLAG knock-in cells (rAAV gene targeting of the endogenous allele)
T2 sequence (P35568 1-1242): T1 sequence (P35568 1-1242)
Experimental: FIG. 4(A-F) illustrate: (A) Schematic diagram of linear and stapled WT and mutant peptides derived from p110α (SEQ ID NOs: 5, 6, 7 and 8). (B) Immunoblots of cell lysates immunoprecipitated with beads conjugated with anti-FLAG antibodies and then blotted with the indicated antibodies. Linear or stapled WT and mutant peptide were added into culture medium of the p110α E545K 3×FLAG KI cells for 16 hr. (C) Immunoblots of cell lysates immunoprecipitated with anti-p110α antibodies and then blotted with the indicated antibodies. Vaco481 CRC cells were treated with the stapled mutant peptides at the indicated concentration. (D) Immunoblots of cell lysates blotted with the indicated antibodies. The indicated cell lines were treated with the stapled mutant peptide. (E) Immunoblots of cell lysates blotted with the indicated antibodies. The indicated cancer cell lines were treated or untreated with stapled WT or mutant peptide at […] for 2 hr. (F) Immunoblots of cell lysates were blotted with the indicated antibodies. The indicated cancer cell lines were treated with or without […] of stapled mutant peptide for 2 hr.
as §1

[3] = biological target: insulin receptor substrate 1 (IRS1) (UniProt P35568)
[4] = biological target: T3, wild-type p110α (endogenous, untagged) (UniProt P42336 1-1068); assay: pull-down with His-tagged IRS1 fragment from WT-only DLD1 lysates (FIG. 1B)
T3 construct: also called WT p110α
From the text: The altered interaction properties of the mutant forms of p110α prompted us to map the minimal essential regions of IRS1 required for its interaction with p110α E545K mutant protein. For this study, we made a series of 6×His-tagged IRS1 truncation constructs (FIGS. 1A and 1C). The His-tagged IRS1 proteins were first expressed in Eschericia coli and purified with Ni-NTA beads. Then the purified proteins were used to pull down p110α from DLD1 cells expressing either the WT p110α only or the p110α E545K mutant only. With these proteins, we first mapped the mutant p110α interaction domain to the middle part of IRS1 (amino acid [AA] 585-962) (FIG. 1B). This fragment contains three YxxM motifs that mediate the pY dependent IRS1-p85 protein interaction. We thus constructed an unphosphorylatable IRS1Y3F mutant fragment (FIG. 1A). […] In contrast, neither of the single region deletions could interrupt the IRS1 mutant p110α interaction. […] Finally, similar results were also observed when the IRS1D was expressed in p110α E545K 3×FLAG KI DLD1 cells.

T3 sequence (P42336 whole entry, the tested form may be a part): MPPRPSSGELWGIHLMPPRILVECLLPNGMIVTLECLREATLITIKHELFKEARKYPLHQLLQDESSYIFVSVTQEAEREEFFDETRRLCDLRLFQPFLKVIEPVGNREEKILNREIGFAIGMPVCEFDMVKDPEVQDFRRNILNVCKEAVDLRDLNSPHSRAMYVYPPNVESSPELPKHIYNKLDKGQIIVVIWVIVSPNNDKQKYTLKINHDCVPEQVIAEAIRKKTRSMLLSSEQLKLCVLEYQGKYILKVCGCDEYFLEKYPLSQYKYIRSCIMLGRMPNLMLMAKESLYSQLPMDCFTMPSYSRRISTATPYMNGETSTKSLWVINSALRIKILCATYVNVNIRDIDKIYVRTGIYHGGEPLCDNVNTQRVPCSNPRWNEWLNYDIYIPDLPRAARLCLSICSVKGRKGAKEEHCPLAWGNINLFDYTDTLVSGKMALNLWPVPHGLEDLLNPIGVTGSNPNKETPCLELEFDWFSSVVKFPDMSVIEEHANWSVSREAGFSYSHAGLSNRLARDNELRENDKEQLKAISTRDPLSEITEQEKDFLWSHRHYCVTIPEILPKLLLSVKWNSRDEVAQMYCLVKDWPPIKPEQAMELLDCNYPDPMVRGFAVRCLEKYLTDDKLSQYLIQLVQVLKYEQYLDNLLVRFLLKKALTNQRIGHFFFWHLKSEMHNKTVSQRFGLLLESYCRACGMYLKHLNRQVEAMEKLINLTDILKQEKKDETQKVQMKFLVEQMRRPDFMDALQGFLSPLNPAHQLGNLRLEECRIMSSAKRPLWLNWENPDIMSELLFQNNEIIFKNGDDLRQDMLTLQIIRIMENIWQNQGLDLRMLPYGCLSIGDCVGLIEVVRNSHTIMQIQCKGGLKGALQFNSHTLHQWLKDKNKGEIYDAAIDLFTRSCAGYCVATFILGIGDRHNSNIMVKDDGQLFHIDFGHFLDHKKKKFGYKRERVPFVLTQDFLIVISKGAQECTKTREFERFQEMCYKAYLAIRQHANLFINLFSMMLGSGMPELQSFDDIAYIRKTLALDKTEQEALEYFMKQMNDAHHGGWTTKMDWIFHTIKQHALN

Molecule: 18-AA mutant peptide: linear 18-AA E545K mutant peptide corresponding to the C-terminal α-helical motif of p110α helical domain (SEITKQEKDFLWSHRHYC-OH; listed as Homo sapiens)
- inhibition of the interaction between p110α E545K and IRS1 [1]: moderate inhibition
- inhibition of the interaction between p110α E545K and IRS1 ([1]; listed as peptide corresponding to the C-terminal α-helical motif): inhibited
- disruption of IRS1-p110α E545K interaction in DLD1 cells [2]: neither the linear mutant peptide nor the stapled WT peptide affected the interaction

Molecule: 30-AA mutant peptide: linear 30-AA p110α E545K mutant peptide forming two α-helix domains flanking the mutation site (EQLKAISTRDPLSEITKQEKDFLWSHRHYC-OH; listed as Homo sapiens)
- inhibition of the interaction between p110α E545K and IRS1 [1]: inhibited

Molecule: N-terminal 21-AA mutant peptide: linear N-terminal 21-AA mutant peptide corresponding to the N-terminal α-helical motif (EQLKAISTRDPLSEITKQEKD-OH; listed as Homo sapiens)
- inhibition of the interaction between p110α E545K and IRS1 [1]: no effect

Molecule: WT peptide: linear 30-AA wild-type p110α counterpart of the 30-AA E545K mutant peptide (EQLKAISTRDPLSEITEQEKDFLWSHRHYC-OH; listed as Homo sapiens) [reference compound]
- inhibition of the interaction between p110α E545K and IRS1 [1]: failed to cause any inhibition

Molecule: p110α E545K mutant (endogenous, untagged)
- AKT phosphorylation [3]: the stapled mutant peptide, but not the WT counterpart, reduced AKT phosphorylation in mutant-only DLD1 cells
- AKT phosphorylation at both T308 and S473 residues [3]: treatment of cancer cell lines (DLD1, H460, and MDA-MB361) harboring p110α E545K ... with the stapled mutant peptide resulted in reduced AKT phosphorylation

B1: 6×His-tagged IRS1 middle fragment (AA 585-962) (other, UniProt P35568 585-962, looked up)
chain: EGLEMHPLERRGGHHRPDSSTLHTDDGYMPMSPGVAPVPSGRKGSGDYMPMSPKSVSAPQQIINPIRRHPQRVDPNGYMMMSPSGGCSPDIGGGPSSSSSSSNAVPSGTSYGKLWTNGVGGHHSHVLPHPKPPVESSGGKLLPCTGDYMNMSPVGDSNTSSPSDCYYGPEDPQHKPVLSYYSLPRSFKHTQRPGEPEEGARHQHLRLSTSSGRLLYAATADDSSSSTSSDSLGGGYCGARLEPSLPHPHHQVLQPHLPRKVDTAAQTNSRLARPTRLSLGDPKASTLPRAREQQQQQQPLLHPPEPKSPGEYVNIEFGSDQSGYLSGPVAFHSSPSVRCPSQLQPAPREEETGTEEYMKMDLGPGRRAAWQESTGVEM
notes: range 585-962; Expressed in E. coli BL21, purified on Ni-NTA beads; also called middle part of IRS1; middle fragment of IRS1; not shown: 6×His tag
- binding result [4]: no binding
